The values that follow come from paper PMC7247208, “A cell suspension based uptake method to study high affinity glucosinolate transporters” (Plant Methods, 2020).

What all share (conditions): pH 5, MSOT3 without nitrate salts, 1 h uptake, transport
Substrate in series [1]: O=S(=O)(O)O/N=C(/Cc1ccc(O)cc1)S[C@@H]1O[C@H](CO)[C@@H](O)[C@H](O)[C@H]1O
Briefly: cells, lysate or membranes.

Substrate in series [2]: C=CC/C(=N/OS(=O)(=O)O)S[C@@H]1O[C@H](CO)[C@@H](O)[C@H](O)[C@H]1O
Briefly: uptake into CCL-1 cotton suspension cells, HPLC of desulfoglucosinolates, Michaelis-Menten fit. The class given is cell-based, Arabidopsis thaliana.

Substrate in series [3]: C=CCC/C(=N\OS(=O)(=O)O)S[C@@H]1O[C@H](CO)[C@@H](O)[C@H](O)[C@H]1O
The description is as above. It counts as cell-based, Arabidopsis thaliana.

B1: AtGTR2 (Arabidopsis thaliana) (protein)
chain: MERKPLELESTDNHQNPSSAVYGGSVTAVDSVEEDVQNQKKVVYRGWKVMPFIIGNETFEKLGIIGTLSNLLVYLTAVFNLKSITAATIINAFSGTINFGTFVAAFLCDTYFGRYKTLSVAVIACFLGSFVILLTAAVPQLHPAACGTAADSICNGPSGGQIAFLLMGLGFLVVGAGGIRPCNLAFGADQFNPKSESGKRGIDSFFNWYFFTFTFAQILSLTLVVYVQSNVSWTIGLTIPAVLMFLACLIFFAGDKLYVKIKASGSPLAGIAQVIAVAIKKRGLKPAKQPWLNLYNYYPPKYANSKLKYTDQFRFLDKAAILTPEDKLQPDGKPADPWKLCTMQQVEEVKCIVRVLPIWFASSIYYLTITQQMTYPVFQALQSDRRLGSGGFVIPAATYVVFLMTGMTVFIVVYDRVLVPTMRRITGLDTGITLLQRIGTGIFFATASLVVAGFVEERRRTFALTKPTLGMAPRKGEISSMSAMWLIPQLSLAGVAEAFAAIGQMEFYYKQFPENMRSFAGSIFYVGGGVSSYLGSFLIATVHRTTQNSSGGNWLAEDLNKGRLDLFYFMIAGILAVNFAYFLVMSRWYRYKGSDDEVTTYETNENIIKQQDKNVA
notes: full-length CDS from Col-0 leaf cDNA, untagged, pEarleyGate100 (CaMV35S), stably expressed in cotton CCL-1 cells; C-terminal YFP fusion only for localization
Consider B1, for which the Km (as a rule, the substrate concentration at which the rate is half of its maximum) turned out to be 166.7 ± 40 µM in series [1], 436.7 ± 154 µM in series [2] and 153.3 ± 59 µM in series [3]. Also, the Vmax (in general, the rate approached at saturating substrate) stood at 1.2e-06 µmol/min/mg in series [1], 4.6e-06 µmol/min/mg in series [2] and 2.9e-06 µmol/min/mg in series [3].

B2: AtGTR1 (Arabidopsis thaliana) (protein)
chain: MKSRVILNHRDRRDKNHNNNNTNHYTQVDTMERKPLEVEPSTTTTNTDVVDSFEEEQRKIVYRGWKVMPFIIGNETFEKLGIIGTLSNLLVYLTSVFNLKSYTAATIINAFSGTINFGTFIAAFLCDTYFGRYKTLSVAVIACFLGSFVILLTAAIPSLHPVACGNKISCEGPSVGQILFLLMGLGFLVVGAGGIRPCNLAFGADQFNPKSESGKKGINSFFNWYFFTFTFAQIISLTAVVYIQSNVSWTIGLIIPVALMFLACVIFFAGDRLYVKVKASGSPLAGIARVIAAAIKKRGLKPVKQPWVNLYNHIPSNYANTTLKYTDQFRFLDKAAIMTPEEKLNSDGTASDPWKLCTLQQVEEVKCIVRVIPIWFASTIYYLAITIQMTYPVFQALQSDRRLGSGGFRIPAATYVVFLMTGMTVFIIFYDRVLVPSLRRVTGLETGISLLQRIGAGFTFAIMSLLVSGFIEERRRNFALTKPTLGMAPRTGEISSMSALWLIPQLTLAGIAEAFAAIGQMEFYYKQFPENMKSFAGSIFYVGAGVSSYLASFLISTVHRTTAHSPSGNWLAEDLNKAKLDYFYFMLTGLMVVNMAYFLLMARWYRYKGGNDEDITEIETNEEETKQQQLQDKNSV
notes: as for B1
For B2, the Km in series [1] came to 104.5 ± 56 µM; in series [2] it was 117.9 ± 44 µM; in series [3], 279.1 ± 109 µM. Also, the Vmax was 5e-07 µmol/min/mg in series [1], 5e-07 µmol/min/mg in series [2] and 3.4e-06 µmol/min/mg in series [3].
